Article PMC13588620 (eLife, 2026)

Molecular target: T1, recombinant SARS-CoV-2 nucleocapsid protein (Severe acute respiratory syndrome …, UniProt P0DTC9)
T1 construct: SARS-CoV-2 nucleocapsid protein; also called NP; N-protein
Test: ELISA; peptide competition ELISA: plate coated with 0.1 ug/ml recombinant SARS-CoV-2 NP overnight at 4°C; 40 μl mBG17 pre-incubated 1 h at room temperature with 40 μg (approximately 30 nMol) of a single peptide fragment, then applied to the plate in triplicate; HRP goat anti-mouse detection; percent of no-peptide control
Conditions: both partners purified

B1: mBG17 anti-SARS-CoV-2 nucleocapsid protein mouse monoclonal antibody (recombinant) (antibody, V domains shown)
VH: EVKLEESGGGLVQPGGSMKFSCVASGFTFSDYWMNWVRQSPDKGLEWVAEIRLKSNNYATHYAASVKGRFTISRDDSKSSVYLQMNNLRAEDSGIYYCTRSAMDYWGQGTSVTVSS
VL: DIVMSQSPSSLAVSVGEKITMSCKSSQSLLYTSDQKNYLAWFQQKPGQSPKLLIFWASTRDSGVPDRFTGSGSGTDFTLTISSVKAEDLAVYYCQQFYNYPRTFGGGTKLEI
notes: VH of mBG17; VL of mBG17; also called recombinant mBG17 antibody; source: recombinant antibody produced in 293F cells (as described in Terry et al., 2021)
B1: binds.
